Measured values published in patent US20040087506A1, “Methods of modulating FabH activity” (SmithKline Beecham Corporation, priority 1999, published 2004).

Substrate: CC(=O)SCCNC(=O)CCNC(=O)[C@H](O)C(C)(C)COP(=O)(O)OP(=O)(O)OC[C@H]1O[C@@H](n2cnc3c(N)ncnc32)[C@H](O)[C@@H]1OP(=O)(O)O
Test: purified protein, by the assay type
Details: other: substrate of FabH; ping-pong mechanism, acetyl-CoA first substrate, malonyl-ACP second

B1: E. coli FabH (Escherichia coli K-12) (protein)
chain: MYTKIIGTGSYLPEQVRTNADLEKMVDTSDEWIVTRTGIRERHIAAPNETVSTMGFEAATRAIEMAGIEKDQIGLIVVATTSATHAFPSAACQIQSMLGIKGCPAFDVAAACAGFTYALSVADQYVKSGAVKYALVVGSDVLARTCDPTDRGTIIIFGDGAGAAVLAASEEPGIISTHLHADGSYGELLTLPNADRVNPENSIHLTMAGNEVFKVAVTELAHIVDETLAANNLDRSQLDWLVPHQANLRIISATAKKLGMSMDNVVVTLDRHGNTSAASVPCALDEAVRDGRIKPGQLVLLEAFGGGFTWGSALVRF
Question: With B1 as the protein, how does the Km read?
Answer: 34 µM
